These results are taken from patent US20090060908A1.

The experiment deals with CD16 (FcγRIII) on human peripheral blood effector cells (human) (UniProt P08637). The experiment is described as follows: cell-based or functional assay.
CD16 (FcγRIII) on human peripheral blood effector cells (human), sequence (P08637 17-254): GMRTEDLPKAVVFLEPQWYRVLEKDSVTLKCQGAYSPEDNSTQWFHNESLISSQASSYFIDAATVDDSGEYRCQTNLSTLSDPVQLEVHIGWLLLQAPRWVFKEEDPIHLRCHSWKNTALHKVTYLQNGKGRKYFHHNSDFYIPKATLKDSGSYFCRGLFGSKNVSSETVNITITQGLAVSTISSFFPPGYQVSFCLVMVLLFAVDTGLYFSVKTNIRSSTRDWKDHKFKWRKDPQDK

anti-CD16 antibody 3G8 gave a % lysis in ADCC by 1 µg/ml 2A10 (fucosylated or defucosylated) with 5 µg/ml anti-CD16 antibody 3G8 below 5% and a % lysis in ADCC by 1 µg/ml 7F12 (CHO-derived or chicken-derived) with 5 µg/ml anti-CD16 antibody 3G8 of 4%.
